Experimental data published in patent US20050164339.

T1: LctMutA
T1 chain: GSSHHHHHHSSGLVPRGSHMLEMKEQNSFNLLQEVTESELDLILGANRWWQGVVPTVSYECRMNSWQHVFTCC

T2: His6-LctA
T2 chain: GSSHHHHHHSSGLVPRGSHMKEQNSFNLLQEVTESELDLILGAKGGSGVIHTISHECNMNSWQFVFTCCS

T3: His6-LctA modified by LctM
T3 chain: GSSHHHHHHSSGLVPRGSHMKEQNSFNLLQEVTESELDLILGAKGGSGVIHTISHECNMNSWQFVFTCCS

B1: GST-Lpd (protein)
chain: MKIVLQNNEQDCLLACYSMILGYFGRDVAIHELYSGEMIPPDGLSVSYLKNINMKHQVSMHVYKTDKKNSPNKIFYPKMLPVIIQWNDNHFVVVTKIYRKNVTLIDPAIGKVKYNYNDFMKKFSGYIITLSPNSSFTKKKRISEIIFPLK
B2: Endoproteinase Lys-C from Lysobacter enzymogenes (protein)
chain: GVSGSCNIDVVCPEGNGHRDVIRSVAAYSKQGTMWCTGSLVNNSANDKKMYFLTANHCGMTTAAIASSMVVYWNYQNSTCRAPGSSSSGANGDGSLAQSQTGAVVRATNAASDFTLLELNTAANPAYNLFWAGWDRRDQNFAGATAIHHPNVAEKRISHSTVATEISGYNGATGTSHLHVFWQASGGVTEPGSSGSPIYSPEKRVLGQLHGGPSSCSATGADRSDYYGRVFTSWTGGGTSATRLSDWLDAAGTGAQFIDGLDSTGTPPV

What was measured:
LctMutA = molecular target: T1, LctMutA
His6-LctA = molecular target: T2, His6-LctA
[1] = molecular target: T3, His6-LctA modified by LctM

| Protein | removal of the leader peptide (LctMutA) | proteolytic cleavage of the leader (MALDI-TOF MS) (His6-LctA) | proteolytic cleavage of the leader (MALDI-TOF MS; sensitivity of indicator strain L. lactis 117) [1] | proteolytic cleavage (MALDI-MS) [1] |
| --- | --- | --- | --- | --- |
| B1 | the protease domain of LctT can remove the leaser peptide and the His-tag | Both unmodified and modified His-LctA were substrates for GST-Lpd | Both unmodified and modified His-LctA were substrates for GST-Lpd |  |
| B2 |  |  |  | cleavage of the amide bond between Lys25 and Gly26 and removal of the leader sequence and the His6-tag |
